Source: patent US9801923B2, “Fusion proteins containing insulin-like growth factor-1 and epidermal growth factor and variants thereof and uses thereof” (IGF Oncology, LLC, priority 2014, dated 2017)
Read-outs that look alike come from different tables or passages of the source.

Experiments:
[1] = tested on: A-431 human epithelial carcinoma cells; test: in vitro proliferation inhibition of A-431 cells; assay type: cell-based; conditions: 4 days with drug
Experimental: A-431 human epithelial carcinoma cells were seeded at 5,000 cells per well in 96-well plates and grown for 1 day. A-431 cells have abundant EGF receptors. After 1 day growth, free bendamustine and 765EGF-bendamustine were added to the plate at concentrations ranging from 200 micromolar bendamstine to 6 nM and from 20 microEq/L 765EGF-bendamustine down to 0.6 nM. The plates were incubated with drug at 37 degrees C. under a humidified 5% CO2 atmosphere for 4 days, and then DOJINDO cell counting kit-8 reagent was added to wells to read proliferation. The plates were read according to manufacturer's instruction. There was a huge difference between free bendamustine and EGF-bendamustine. […] The difference in effectiveness was more than 1000-fold expressed in terms of the concentration of bendamustine groups.

L929 cells = test: 765TNFa activity assay, killing of L929 cells; assay type: cell-based; conditions: 24 hours
Experimental: L929 cells were plated at 10,000 cells per well in two 96-well plates in their recommended growth medium with 2% fetal bovine serum. They were grown for 2 days at 37° C. in a 5% CO2 humidified atmosphere. In one plate, after the 2 days incubation 1 ug/ml final concentration actinomycin D was added; in the other plate no actinomycin D was added. 765TNFa was then added at a range of concentrations. Plates were incubated 24 hours more. Then cell viability was quantified with DOJINDO cell counting kit-8 according to manufacturer's instructions. […] These are even lower IC50s than are reported in the literature for TNF-alpha.

MCF-7 tumor cells [2] = test: in vitro cytotoxicity assay, inhibition of proliferation of MCF-7 tumor cells; assay type: cell-based; conditions: Homo sapiens, MCF7, read-out: IC50 (concentration needed for 50% inhibition of cell proliferation)
Experimental: Five-thousand MCF7 cells were plated per well in a 96-well test plate in 100 ul of rich media on day 0. A shadow plate was made for each test plate, with each well of the shadow plate containing media or 3× the intended final concentration of test agent in media in each well. As a negative control, media is used. […] After making the shadow plate, 50 ul is transferred from each well of the shadow plate to the corresponding well of the test plate to generate the final concentrations of test agent in the wells of the test plate. Cell proliferation is determined by adding Dojindo CCK-8 reagent and incubating and measuring absorbance of the dye according to the manufacturer's instructions.

[3] = assay type: physicochemical
From the text: These smaller fragments are seen on SDS-PAGE.

IGF receptors = IGF receptors (Homo sapiens, UniProt P08069); test: competition binding of refolded IGF fusion proteins to IGF receptors against radioactive wild type IGF; conditions: Ni eluates refolded 3 hours at room temperature, read-out: approximate binding constants (KDs)
Experimental: 2 ml of each of the original Ni eluates from Example 1 was mixed with about an equal volume of 100 mM glycine, 6 M urea, pH 9.5, concentrated by ultrafiltration in a CENTRICON 3 kDa filter unit, then brought up again in that buffer and concentrated to about 420 ul. Then they were diluted to 2 mg/ml for 403IGF, 764IGF, and 765IGF, and 4 mg/ml for 784IGF and 2.4 mg/ml for 785IGF.
200 ul of each of these was mixed rapidly with 1.8 ml of refold buffer. Refold buffer was 1.4 M urea, 100 mM glycine, 0.5 M NaCl, 19% ethanol, 0.5 mM GSSG, 4 mM GSH, pH 9.5. They were refolded at room temperature for 3 hours, and then tested in a binding assay for competition binding to IGF receptors against […] radioactive wild type IGF (Perkin Elmer, Inc.) For comparison, commercial Long-R3-IGF (LR3IGF) was also tested.

[4] = target: T1, type 1 IGF receptors on MCF7 cells (Homo sapiens, UniProt P08069); test: 765IGF binding assay to IGF-1 receptor on MCF7 cells (125I IGF-1 competition); conditions: overnight at 4° C.
T1 construct: type 1 IGF receptors that are abundant on MCF7 cells; host or cells: MCF7
Experimental: Theory of assay: Radioactive ^125I labeled insulin-like growth factor-1 (IGF-1) competes with a test ligand for binding to type 1 IGF receptors that are abundant on MCF7 cells (a human breast cancer cell line) in vitro.
MCF7 cell media: 500 mL MEM, 0.01 mg/mL bovine insulin; 5 mL sodium pyruvate, 5 mL non-essential amino acids, 10 mL sodium bicarbonate, 10 mL fetal bovine serum, 5 mL penicillin/streptomycin.
MCF7 cells (ATCC HTB-22) were plated at 20,000 cells per well in a volume of 0.5 mL/well in a 48-well tissue culture plate (flat bottom with low evaporation lid) and placed in a cell culture incubator set at 37° C. with 5% CO2. After 2-3 days in culture the plates were washed 2× with 0.5 mL per well of cold binding assay buffer (100 mM Hepes-NaOH, pH 7.2; 120 mM NaCl; 5 mM KCl; 1.2 mM MgSO4; 0.1% BSA). After the final wash, 0.5 mL of binding assay buffer was added to each well and the plates are placed at 4° C. for 2 to 6 hours.
Test ligands were prepared at a concentration of 10 micromolar (long-R3-IGF) or 20 micromolar (765IGF and IGF-MTX) in 5 mM HCl in a volume of 200 ul. To determine the concentration, the molecular weight of 765IGF (9742 daltons) and long-R3-IGF (9111 daltons) are used. […]
The plates were then incubated overnight at 4° C. […] Cells were lysed with 0.5 mL 300 mM NaOH, 1% SDS and the lysates were counted on a gamma counter.

[5] = target: T2, dihydrofolate reductase (DHFR) (Homo sapiens, UniProt P00374); test: inhibition of dihydrofolate reductase (Sigma-Aldrich assay kit); assay type: biochemical
T2 construct: purchased Sigma-Aldrich
T2 sequence (P00374 1-187): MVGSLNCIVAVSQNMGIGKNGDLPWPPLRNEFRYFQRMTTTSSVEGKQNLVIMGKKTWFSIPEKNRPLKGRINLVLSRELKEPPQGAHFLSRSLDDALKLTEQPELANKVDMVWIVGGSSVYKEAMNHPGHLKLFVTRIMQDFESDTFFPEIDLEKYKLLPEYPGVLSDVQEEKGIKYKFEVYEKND
Experimental: The experiments were done with the dihydrofolate reductase assay kit from Sigma-Aldrich (St. Louis, Mo., USA), according to the manufacturer's instructions. In the assay dihydrofolate reductase is mixed with pH 7.5 buffer. […] It was incubated for 30 seconds to allow inhibitor binding. Then NADPH is added to 50 uM final concentration, and then dihydrofolic acid is added to 60 uM final concentration. The reaction is monitored by measuring absorbance at 340 nm.

MCF-7 tumor cells [6] = conditions: for comparison, McTavish et al., 2009; cited from earlier work

Sequence of IGF receptors (P08069 31-736 limits assumed): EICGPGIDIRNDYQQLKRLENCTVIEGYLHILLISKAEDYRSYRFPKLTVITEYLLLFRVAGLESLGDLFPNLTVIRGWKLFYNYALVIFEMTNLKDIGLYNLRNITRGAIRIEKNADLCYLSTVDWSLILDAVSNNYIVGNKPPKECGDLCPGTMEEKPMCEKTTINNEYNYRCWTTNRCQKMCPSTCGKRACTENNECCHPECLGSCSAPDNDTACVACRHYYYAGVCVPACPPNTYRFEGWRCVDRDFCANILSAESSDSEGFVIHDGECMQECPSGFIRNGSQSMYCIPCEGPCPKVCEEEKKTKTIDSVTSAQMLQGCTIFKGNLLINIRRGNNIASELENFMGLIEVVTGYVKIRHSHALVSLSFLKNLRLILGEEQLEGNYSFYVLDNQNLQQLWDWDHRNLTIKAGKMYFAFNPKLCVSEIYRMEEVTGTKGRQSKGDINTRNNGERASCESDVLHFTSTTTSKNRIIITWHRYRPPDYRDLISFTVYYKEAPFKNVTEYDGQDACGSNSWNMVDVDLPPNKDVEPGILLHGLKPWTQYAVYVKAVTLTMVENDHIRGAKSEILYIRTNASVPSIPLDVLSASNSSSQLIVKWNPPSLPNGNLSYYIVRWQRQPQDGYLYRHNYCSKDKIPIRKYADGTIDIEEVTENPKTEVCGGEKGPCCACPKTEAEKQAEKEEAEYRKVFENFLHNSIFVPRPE
Sequence of IGF receptors (P08069 741-1367 partner limits assumed): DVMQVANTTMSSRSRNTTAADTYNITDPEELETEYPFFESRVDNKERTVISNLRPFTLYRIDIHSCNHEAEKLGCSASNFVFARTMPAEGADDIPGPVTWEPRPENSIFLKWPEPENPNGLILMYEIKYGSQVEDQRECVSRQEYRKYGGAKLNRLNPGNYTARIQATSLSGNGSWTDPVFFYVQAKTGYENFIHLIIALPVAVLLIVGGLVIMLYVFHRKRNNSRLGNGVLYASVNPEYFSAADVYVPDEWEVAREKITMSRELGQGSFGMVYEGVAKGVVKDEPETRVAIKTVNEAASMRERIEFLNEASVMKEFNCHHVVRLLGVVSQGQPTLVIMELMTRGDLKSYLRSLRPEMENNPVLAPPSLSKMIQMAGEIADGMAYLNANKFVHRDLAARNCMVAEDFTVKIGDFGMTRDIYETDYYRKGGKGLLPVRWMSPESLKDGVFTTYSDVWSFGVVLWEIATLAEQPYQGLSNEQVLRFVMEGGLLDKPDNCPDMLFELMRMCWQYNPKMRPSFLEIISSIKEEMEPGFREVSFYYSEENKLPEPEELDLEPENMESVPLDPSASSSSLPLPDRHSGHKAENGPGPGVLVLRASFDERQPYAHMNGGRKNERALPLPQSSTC
T1 sequence (P08069 31-736 limits assumed): as the sequence (P08069 31-736 limits assumed) above
T1 sequence (P08069 741-1367 partner limits assumed): as the sequence (P08069 741-1367 partner limits assumed) above

## Cn1c(CCCC(=O)O)nc2cc(N(CCCl)CCCl)ccc21 [bendamustine]
[1]
  concentration above which proliferation was inhibited: above 10 micromolar
[1]; Homo sapiens, 96 h
  IC50: ~90000 nM

## 765TNFa: soluble form of tumor necrosis factor alpha fused to SEQ ID NO:1 leader, SEQ ID NO:17
L929 cells; L929 cells with 1 ug/ml actinomycin
  IC50 for killing the cells: less than 79 pg/ml
L929 cells; L929 cells with no actinomycin
  IC50 for killing the cells: about 70 ng/ml

## CN(Cc1cnc2nc(N)nc(N)c2n1)c1ccc(C(=O)N[C@@H](CCC(=O)O)C(=O)O)cc1 [Methotrexate, methotrexate]
MCF-7 tumor cells [2]
  IC50: 88 nM

B1: IGF132: variant of IGF-1 with reduced binding to soluble IGF binding proteins, SEQ ID NO:4 (protein)
chain: FVNQHLCGSHLVEALYLVCGDRGFYFNKPTGYGSSSRRAPQTGIVDECCFRSCDLRRLEMYCAPLKPAKSA
[3]
  stability to storage: breaks down to produce a significant amount of smaller molecular weight fragments

B2: 403IGF: His6-IGF fusion protein, SEQ ID NO: 14 (protein)
chain: MTSGHHHHHHSAGVNGFVNQHLCGSHLVEALYLVCGDRGFYFNKPTGYGSSSRRAPQTGIVDECCFRSCDLRRLEMYCAPLKPAKSA
IGF receptors
  Kd: ~2 nM

B3: 785IGF: mutTrx-IGF132 fusion protein, SEQ ID NO: 16 (protein)
chain: MVKQIESKTAFQEALDAAGDKLVVVDFSATWCGHCKMIKPFFHSLSEKYSNVIFLEVDVDDSQDVASESEVKSMPTFQFFKKGQKVGEFSGANKEKLEATINELVGSKSGHHHHHHSAKGFVNQHLCGSHLVEALYLVCGDRGFYFNKPTGYGSSSRRAPQTGIVDECCFRSCDLRRLEMYCAPLKPAKSA
IGF receptors
  Kd: ~40 nM

B4: LR3IGF: commercial Long-R3-IGF variant of IGF-1 (Sigma Aldrich), SEQ ID NO:5 (protein)
chain: MFPAMPLSSLFVNGPRTLCGALVDALQFVCGDRGFYFNKPTGYGSSSRRAPQTGIVDECCFRSCDLRRLEMYCAPLKPAKSEA
[4]
  Kd: ~3 nM
IGF receptors
  Kd: ~1 nM

B5: LR3IGF-MTX (conjugate)
chain: B4 chain
[5]; DHFR, concentration of conjugated MTX groups, read-out: IC50
  IC50: 99 nM
[5]; IC50 in nEq/L divided by MTX per IGF, read-out: inhibition constant in terms of protein concentration
  IC50: 35 nM
MCF-7 tumor cells [6]
  IC50: ~400 nM

B6: 764IGF: His6-K5-IGF132 fusion protein, SEQ ID NO: 18 (protein)
chain: MVKGKHHHHHHNGKGKSKFVNQHLCGSHLVEALYLVCGDRGFYFNKPTGYGSSSRRAPQTGIVDECCFRSCDLRRLEMYCAPLKPAKSA
IGF receptors
  Kd: ~100 nM
